This passage reports Kd results from paper PMC4067574 (Protein expression and purification, 2010).

“And” between values parts separate entries of the source, which are not always exact repeats. Identical values can stand only once.

As a reminder, the Kd is the free concentration of one partner at which half of the binding sites on the other are occupied at equilibrium, for simple one-to-one binding. The low end stands for tighter binding, the high end for weaker binding.

The assay concerns the target C3b (UniProt P01024 23-667; P01024 749-1663). Put plainly: SPR. (In SPR one partner is held on a chip, and binding of the other changes the refractive index at the surface.)

Sequence of C3b (P01024 23-667, chain 1 of 2): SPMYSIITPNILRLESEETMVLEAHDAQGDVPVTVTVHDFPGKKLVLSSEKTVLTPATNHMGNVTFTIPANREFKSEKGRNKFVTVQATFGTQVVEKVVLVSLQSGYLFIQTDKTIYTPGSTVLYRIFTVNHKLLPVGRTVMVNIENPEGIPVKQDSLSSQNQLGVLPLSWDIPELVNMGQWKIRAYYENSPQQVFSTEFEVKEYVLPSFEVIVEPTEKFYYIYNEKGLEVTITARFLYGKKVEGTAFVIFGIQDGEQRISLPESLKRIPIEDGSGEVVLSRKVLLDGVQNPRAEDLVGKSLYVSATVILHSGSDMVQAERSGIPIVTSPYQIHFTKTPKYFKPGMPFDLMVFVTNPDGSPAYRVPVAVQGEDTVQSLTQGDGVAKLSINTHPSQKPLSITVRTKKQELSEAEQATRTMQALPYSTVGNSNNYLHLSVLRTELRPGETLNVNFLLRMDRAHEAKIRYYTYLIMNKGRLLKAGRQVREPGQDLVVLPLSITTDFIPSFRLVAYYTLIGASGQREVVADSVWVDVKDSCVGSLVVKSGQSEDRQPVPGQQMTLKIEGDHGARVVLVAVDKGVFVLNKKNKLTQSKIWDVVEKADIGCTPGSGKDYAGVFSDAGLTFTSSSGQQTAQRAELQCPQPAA
Sequence of C3b (P01024 749-1663, chain 2 of 2): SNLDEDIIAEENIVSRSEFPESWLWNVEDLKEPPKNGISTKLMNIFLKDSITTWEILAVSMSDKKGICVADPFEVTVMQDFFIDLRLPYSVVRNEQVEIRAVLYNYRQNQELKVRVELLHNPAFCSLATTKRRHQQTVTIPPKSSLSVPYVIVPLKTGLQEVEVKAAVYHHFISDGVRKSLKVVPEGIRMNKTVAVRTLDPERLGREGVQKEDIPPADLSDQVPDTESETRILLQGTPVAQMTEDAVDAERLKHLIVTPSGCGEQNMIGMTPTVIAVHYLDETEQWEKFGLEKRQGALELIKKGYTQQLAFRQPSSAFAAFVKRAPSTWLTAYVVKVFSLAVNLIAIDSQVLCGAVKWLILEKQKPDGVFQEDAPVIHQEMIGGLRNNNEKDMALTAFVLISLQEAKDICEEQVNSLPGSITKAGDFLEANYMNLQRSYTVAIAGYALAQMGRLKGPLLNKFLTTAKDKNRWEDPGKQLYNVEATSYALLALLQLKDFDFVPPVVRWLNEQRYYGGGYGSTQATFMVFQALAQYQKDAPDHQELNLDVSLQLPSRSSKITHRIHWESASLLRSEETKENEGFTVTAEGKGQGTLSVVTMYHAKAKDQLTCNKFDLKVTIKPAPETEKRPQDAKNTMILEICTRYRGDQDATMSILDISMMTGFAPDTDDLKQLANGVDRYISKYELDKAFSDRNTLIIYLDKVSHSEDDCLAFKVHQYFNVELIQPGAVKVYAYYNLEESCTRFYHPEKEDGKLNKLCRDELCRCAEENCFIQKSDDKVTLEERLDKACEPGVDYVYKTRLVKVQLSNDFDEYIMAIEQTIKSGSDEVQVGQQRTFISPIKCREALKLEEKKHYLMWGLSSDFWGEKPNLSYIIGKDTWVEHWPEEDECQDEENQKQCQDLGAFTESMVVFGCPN

B1: recombinant human complement factor H, V62,Y402 variant (rFH), Endo Hf-deglycosylated (natural protein, UniProt P08603 19-1231, looked up)
chain: EDCNELPPRRNTEILTGSWSDQTYPEGTQAIYKCRPGYRSLGNVIMVCRKGEWVALNPLRKCQKRPCGHPGDTPFGTFTLTGGNVFEYGVKAVYTCNEGYQLLGEINYRECDTDGWTNDIPICEVVKCLPVTAPENGKIVSSAMEPDREYHFGQAVRFVCNSGYKIEGDEEMHCSDDGFWSKEKPKCVEISCKSPDVINGSPISQKIIYKENERFQYKCNMGYEYSERGDAVCTESGWRPLPSCEEKSCDNPYIPNGDYSPLRIKHRTGDEITYQCRNGFYPATRGNTAKCTSTGWIPAPRCTLKPCDYPDIKHGGLYHENMRRPYFPVAVGKYYSYYCDEHFETPSGSYWDHIHCTQDGWSPAVPCLRKCYFPYLENGYNQNYGRKFVQGKSIDVACHPGYALPKAQTTVTCMENGWSPTPRCIRVKTCSKSSIDIENGFISESQYTYALKEKAKYQCKLGYVTADGETSGSITCGKDGWSAQPTCIKSCDIPVFMNARTKNDFTWFKLNDTLDYECHDGYESNTGSTTGSIVCGYNGWSDLPICYERECELPKIDVHLVPDRKKDQYKVGEVLKFSCKPGFTIVGPNSVQCYHFGLSPDLPICKEQVQSCGPPPELLNGNVKEKTKEEYGHSEVVEYYCNPRFLMKGPNKIQCVDGEWTTLPVCIVEESTCGDIPELEHGWAQLSSPPYYYGDSVEFNCSESFTMIGHRSITCIHGVWTQLPQCVAIDKLKKCKSSNLIILEEHLKNKKEFDHNSNIRYRCRGKEGWIHTVCINGRWDPEVNCSMAQIQLCPPPPQIPNSHNMTTTLNYRDGEKVSVLCQENYLIQEGEEITCKDGRWQSIPLCVEKIPCSQPPQIEHGTINSSRSSQESYAHGTKLSYTCEGGFRISEENETTCYMGKWSSPPQCEGLPCKSPPEISHGVVAHMSDSYQYGEEVTYKCFEGFGIDGPAIAKCLGEKWSHPPSCIKTDCLSLPSFENAIPMGEKKDVYKAGEQVTYTCATYYKMDGASNVTCINSRWTGRPTCRDTSCVNPPTVQNAYIVSRQMSKYPSGERVRYQCRSPYEMFGDEEVMCLNGNWTEPPQCKDSTGKCGPPPPIDNGDITSFPLSVYAPASSVEYQCQNLYQLEGNKRITCRNGQWSEPPKCLHPCVISREIMENYNIALRWTAKQKLYSRTGESVEFVCKRGYRLSSRSHTLRTTCWDGKLEYPTCAKR
modifications: eight residual N-acetylglucosamine moieties after endoglycosidase H (Endo Hf) digestion of the N-linked glycans
Regarding B1, the Kd is 1500 nM and 1400 nM.

B2: plasma-purified human complement factor H (reference FH) (natural protein, UniProt P08603 19-1231, looked up)
chain: EDCNELPPRRNTEILTGSWSDQTYPEGTQAIYKCRPGYRSLGNVIMVCRKGEWVALNPLRKCQKRPCGHPGDTPFGTFTLTGGNVFEYGVKAVYTCNEGYQLLGEINYRECDTDGWTNDIPICEVVKCLPVTAPENGKIVSSAMEPDREYHFGQAVRFVCNSGYKIEGDEEMHCSDDGFWSKEKPKCVEISCKSPDVINGSPISQKIIYKENERFQYKCNMGYEYSERGDAVCTESGWRPLPSCEEKSCDNPYIPNGDYSPLRIKHRTGDEITYQCRNGFYPATRGNTAKCTSTGWIPAPRCTLKPCDYPDIKHGGLYHENMRRPYFPVAVGKYYSYYCDEHFETPSGSYWDHIHCTQDGWSPAVPCLRKCYFPYLENGYNQNYGRKFVQGKSIDVACHPGYALPKAQTTVTCMENGWSPTPRCIRVKTCSKSSIDIENGFISESQYTYALKEKAKYQCKLGYVTADGETSGSITCGKDGWSAQPTCIKSCDIPVFMNARTKNDFTWFKLNDTLDYECHDGYESNTGSTTGSIVCGYNGWSDLPICYERECELPKIDVHLVPDRKKDQYKVGEVLKFSCKPGFTIVGPNSVQCYHFGLSPDLPICKEQVQSCGPPPELLNGNVKEKTKEEYGHSEVVEYYCNPRFLMKGPNKIQCVDGEWTTLPVCIVEESTCGDIPELEHGWAQLSSPPYYYGDSVEFNCSESFTMIGHRSITCIHGVWTQLPQCVAIDKLKKCKSSNLIILEEHLKNKKEFDHNSNIRYRCRGKEGWIHTVCINGRWDPEVNCSMAQIQLCPPPPQIPNSHNMTTTLNYRDGEKVSVLCQENYLIQEGEEITCKDGRWQSIPLCVEKIPCSQPPQIEHGTINSSRSSQESYAHGTKLSYTCEGGFRISEENETTCYMGKWSSPPQCEGLPCKSPPEISHGVVAHMSDSYQYGEEVTYKCFEGFGIDGPAIAKCLGEKWSHPPSCIKTDCLSLPSFENAIPMGEKKDVYKAGEQVTYTCATYYKMDGASNVTCINSRWTGRPTCRDTSCVNPPTVQNAYIVSRQMSKYPSGERVRYQCRSPYEMFGDEEVMCLNGNWTEPPQCKDSTGKCGPPPPIDNGDITSFPLSVYAPASSVEYQCQNLYQLEGNKRITCRNGQWSEPPKCLHPCVISREIMENYNIALRWTAKQKLYSRTGESVEFVCKRGYRLSSRSHTLRTTCWDGKLEYPTCAKR
modifications: eight N-glycans (native protein)
As for B2, the Kd was 2900 nM.
